Data on 13 substances can be found in PMC3432979.

The target in assay [1] is HLA-DR1 (DRα1*0101/DRβ1*0101) refolded in the absence of peptide. Nature of the assay: IC50 APL stability assay (peptide binding to DR1). The conditions noted are these: read off a plot.
Assay [2] deals with HLA-DR1 (DRα1*0101/DRβ1*0101) with the influenza hemagglutinin peptide HA306-318 (human | influenza virus). Nature of the assay: SPR.
Assay [3] shares this target. The assay can be described thus: SPR. The source holds these as a separate data set.
The target of assay [4] is HLA-DR4 (DRα1*0101/DRβ1*0401) with the influenza hemagglutinin peptide HA306-318 (human | influenza virus). Nature of the assay: SPR. In general terms: SPR reads the build-up and loss of mass on a sensor chip optically.
Assay [5] deals with HLA-DR1 (DRα1*0101/DRβ1*0101) with the influenza hemagglutinin peptide HA306-318 (human | influenza virus). Nature of the assay: SPR. This is another data set of the same source.
Assay [6] addresses HLA-DR4 (DRα1*0101/DRβ1*0401) with the influenza hemagglutinin peptide HA306-318 (human | influenza virus). Nature of the assay: SPR. The source holds these as a separate data set.
The target is the same in assay [7]. The assay can be described thus: SPR. This is another data set of the same source.
Assay [8] shares this target. Nature of the assay: SPR. This is another data set of the same source.
Assay [9] deals with HLA-DR1 (DRα1*0101/DRβ1*0101) with the influenza hemagglutinin peptide HA306-318 (human | influenza virus). Nature of the assay: SPR. This is another data set of the same source.
For assay [10] the target is unchanged. The assay can be described thus: SPR. This is another data set of the same source.
Assay [11] deals with HLA-DR4 (DRα1*0101/DRβ1*0401) with the influenza hemagglutinin peptide HA306-318 (human | influenza virus). The assay can be described thus: SPR. The source holds these as a separate data set.

Read-outs that look alike come from different tables or passages of the source.

As a reminder, the IC50 is the concentration that inhibits the measured activity by half. For the substance HA306-318 peptide (wild-type HA) K307S, the IC50 in assay [1] (parent: est. 12) was determined as 22 nM.

For HA306-318 peptide (wild-type HA) Y308A, in [1] (parent: est. 13), the IC50 turned out to be 22000 nM.

For HA306-318 peptide (wild-type HA) N312Q, the IC50 in assay [1] (parent: est. 12) was 11 nM.

Turning to HA306-318 peptide (wild-type HA) N312K, the IC50 in assay [1] (parent: est. 12) amounted to 18 nM.

As for HA306-318 peptide (wild-type HA) N312T, the IC50 in [1] (parent: est. 12) came to 15 nM.

Consider HA306-318 peptide (wild-type HA) N312S, for which the IC50 in [1] (parent: est. 12) turned out to be 12 nM.

As for HA306-318 peptide (wild-type HA) K315H, the IC50 in [1] (parent: est. 12) is 13 nM.

Consider HA306-318 peptide (wild-type HA) N312F, for which the IC50 in [1] (parent: est. 12) came to 6 nM.

For HA306-318 peptide (wild-type HA) V309E, the IC50 in assay [1] (parent: est. 12) was determined as 30 nM.

For HA306-318 peptide (wild-type HA) K310V, in [1] (parent: est. 12), the IC50 is 10 nM.

As for HA306-318 peptide (wild-type HA) K310F, the IC50 in assay [1] (parent: est. 12) is 8 nM.

In general, Kd refers to the constant that tells how readily two partners part at equilibrium. Lower therefore signals higher affinity. With “HA1.7 TCR (soluble, extracellular variable and constant domains with an engineered disulphide link)”, the Kd in [2] came out at 204 µM; in [3], 36 µM; in assay [4] it was 89 µM; in assay [5] it was 531 µM; in assay [6], 1.27 mM; in [7], 291 µM. The Kd in [8] amounted to 55 µM; in assay [9], 28 µM; in [10], 62 µM; in [11], 48 µM. The dH in [5] was found to be 18 kcal/mol; in [6], 16 kcal/mol.

On to HA306-318 peptide (wild-type HA) V309R, for which the IC50 in assay [1] (parent: est. 12) was determined as 21 nM.
